Measurements: patent US8889621B2, “Inhibiting binding of FGF23 to the binary FGFR-Klotho complex for the treatment of hypophosphatemia” (New York University, priority 2009, dated 2014)

Legend:
[1] = target: T1, Klotho ectodomain (Mus musculus, UniProt O35082); experiment: SPR: Klotho ectodomain passed over immobilized FGF23; format: binding, murine
T1 construct: The ectodomain of murine Klotho (A35 to K982) was purified from culture media; FLAG (C); made in house; host or cells: HEK293 (secreted into culture media)
T1 sequence (O35082 35-982): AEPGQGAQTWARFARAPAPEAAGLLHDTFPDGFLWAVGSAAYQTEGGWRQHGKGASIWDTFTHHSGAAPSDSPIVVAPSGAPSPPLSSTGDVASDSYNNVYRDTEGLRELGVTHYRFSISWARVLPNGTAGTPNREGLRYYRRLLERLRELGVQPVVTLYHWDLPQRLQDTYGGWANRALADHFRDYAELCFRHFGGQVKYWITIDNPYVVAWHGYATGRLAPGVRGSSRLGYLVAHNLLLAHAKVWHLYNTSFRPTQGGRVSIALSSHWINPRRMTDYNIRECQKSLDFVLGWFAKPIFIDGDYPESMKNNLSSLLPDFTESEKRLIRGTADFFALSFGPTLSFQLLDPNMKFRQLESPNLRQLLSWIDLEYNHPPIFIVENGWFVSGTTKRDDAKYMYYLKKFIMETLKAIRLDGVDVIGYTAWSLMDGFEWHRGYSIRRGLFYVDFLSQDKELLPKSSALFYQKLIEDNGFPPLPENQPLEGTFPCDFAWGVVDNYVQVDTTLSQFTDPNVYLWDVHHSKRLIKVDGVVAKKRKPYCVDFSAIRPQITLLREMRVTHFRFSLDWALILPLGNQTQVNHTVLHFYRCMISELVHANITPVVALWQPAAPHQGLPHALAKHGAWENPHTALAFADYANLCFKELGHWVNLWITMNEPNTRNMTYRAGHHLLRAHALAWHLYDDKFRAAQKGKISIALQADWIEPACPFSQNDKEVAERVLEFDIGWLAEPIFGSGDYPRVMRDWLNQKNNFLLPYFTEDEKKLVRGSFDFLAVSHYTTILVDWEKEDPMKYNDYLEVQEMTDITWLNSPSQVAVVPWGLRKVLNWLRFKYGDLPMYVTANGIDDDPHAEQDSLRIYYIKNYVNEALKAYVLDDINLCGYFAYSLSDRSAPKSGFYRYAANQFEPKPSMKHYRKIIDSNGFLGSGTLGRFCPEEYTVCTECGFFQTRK
Experimental: (§1) Surface plasmon resonance (SPR) spectroscopy experiments were performed on a Biacore 2000 instrument (Biacore AB), and FGF23-FGFR1c-Klotho interactions were studied at 25° C. in HBS-EP buffer (10 mM HEPES-NaOH, pH 7.4, 150 mM NaCl, 3 mM EDTA, 0.005% (v/v) polysorbate 20). Proteins were immobilized by amine coupling on flow channels of research grade CM5 chips (Biacore AB). Proteins were injected over a CM5 chip at a flow rate of 50 μl min^−1, and at the end of each protein injection (180 s), HBS-EP buffer (50 μl min^−1) was flowed over the chip to monitor dissociation for 180 s. The chip surface was then regenerated by injecting 50 μl of 2.0 M NaCl in 10 mM sodium acetate, pH 4.5. To control for nonspecific binding in experiments where Klotho ectodomain was immobilized on the chip, β-glucuronidase was coupled to the control flow channel of the chip (˜26-32 fmole/mm^2). […] The data were processed with BiaEvaluation software (Biacore AB). For each protein injection over a Klotho chip, the nonspecific responses from the β-glucuronidase control flow channel were subtracted from the responses recorded for the Klotho flow channel. Similarly, for each protein injection over a FGF chip, the nonspecific responses from the FHF1B control flow channel were subtracted from the responses recorded for the FGF flow channel. […]

[2] = target: T2, FGFR1c ectodomain (Homo sapiens, UniProt P11362); experiment: SPR: FGFR1c ectodomain passed over immobilized FGF23; format: binding
T2 construct: made in house; host or cells: E. coli
T2 sequence (P11362 142-365): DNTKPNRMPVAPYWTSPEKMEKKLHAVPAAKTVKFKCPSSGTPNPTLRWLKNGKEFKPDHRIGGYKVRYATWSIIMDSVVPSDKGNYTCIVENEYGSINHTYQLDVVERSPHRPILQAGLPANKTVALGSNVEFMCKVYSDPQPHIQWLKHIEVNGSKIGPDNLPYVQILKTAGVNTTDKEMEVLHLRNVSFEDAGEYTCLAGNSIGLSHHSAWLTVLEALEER
Experimental: as §1

binding of Klotho ectodomain to immobilized FGF23 [1]: bound poorly
binding of FGF23 to FGFR1c ectodomain alone [2]: poor binding
B1: FGF23^28-251: human FGF23 (A28 to I251), bioactive full-length ligand expressed in E. coli (protein, listed as Homo sapiens)
chain: ASPLLGSSWGGLIHLYTATARNSYHLQIHKNGHVDGAPHQTIYSALMIRSEDAGFVVITGVMSRRYLCMDFRGNIFGSHYFDPENCRFQHQTLENGYDVYHSPQYHFLVSLGRAKRAFLPGMNPPPYSQFLSRRNEIPLIHFNTPIPRRHTRSAEDDSERDPLNVLKPRARMTPAPASCSQELPSAEDNSPMASDPLGVVRGGRVNTHAGGTGPEGCRPFAKFI
